We go through 57 substances from patent US10047131B2, “Peptides and combination of peptides for use in immunotherapy against ovarian cancer and other cancers” (immatics biotechnologies GmbH, priority 2015, dated 2018).

For the assay, the target named is HLA-A*02:01 (Homo sapiens, UniProt P04439, D140Y/D185E/D98H/E176V/E277Q/G131W/G231S/I119V/I121R/I166T/I218V/L300P/L318F/N151K/N90K/P208A/P217A/Q86G/Q94H/R138H/R169H/T345S). Nature of the assay: MHC binding assay (UV-ligand exchange, ELISA of exchange yield). As to conditions: binding to HLA-A*02:01, UV-ligand exchange. The text has this: Candidate peptides for T cell based therapies according to the present invention were further tested for their MHC binding capacity (affinity). The individual peptide-MHC complexes were produced by UV-ligand exchange, where a UV-sensitive peptide is cleaved upon UV-irradiation, and exchanged with the peptide of interest as analyzed. Only peptide candidates that can effectively bind and stabilize the peptide-receptive MHC molecules prevent dissociation of the MHC complexes. To determine the yield of the exchange reaction, an ELISA was performed based on the detection of the light chain (p2m) of stabilized MHC complexes. The assay was performed as generally described in Rodenko et al. (Rodenko et al., 2006).
96 well MAXISorp plates (NUNC) were coated over night with 2 μg/ml streptavidin in PBS at room temperature, washed 4× and blocked for 1 h at 37° C. in 2% BSA containing blocking buffer. […] Peptide-MHC monomers of the UV-exchange reaction were diluted 100 fold in blocking buffer. Samples were incubated for 1h at 37° C., washed four times, incubated with 2 μg/ml HRP conjugated anti-β2m for 1h at 37° C., washed again and detected with TMB solution that is stopped with […]. Absorption was measured at 450 nm. Candidate peptides that show a high exchange yield (preferably higher than 50%, most preferred higher than 75%) are generally preferred for a generation and production of antibodies or fragments thereof, and/or T cell receptors or fragments thereof, as they show sufficient avidity to the MHC molecules and prevent dissociation of the MHC complexes.
For orientation: ELISA stands for enzyme-linked immunosorbent assay.
Regarding “1 (SLMEPPAVLLL; listed as Homo sapiens) [compound 1]”, the “Peptide exchange (MHC class I binding score, peptide exchange yield)” value (from here on “Peptide exchange”) was ““+++” (≥50 = +++)”. Under “2 (SLLEADPFL; listed as Homo sapiens) [compound 2]” stands ““+++” (≥50 = +++)”. Then “3 (SLASKLTTL; listed as Homo sapiens) [compound 3]”, with ““++++” (≥75% = ++++)”; and “4 (GIMEHITKI; listed as Homo sapiens) [compound 4]”, with ““++++” (≥75% = ++++)”; and “5 (HLTEVYPEL; listed as Homo sapiens) [compound 5]”, with ““+++” (≥50 = +++)”.

“6 (VLVSDGVHSV; listed as Homo sapiens) [compound 6]”: the “Peptide exchange” value is reported as ““+++” (≥50 = +++)”. Under “7 (SLVGLLLYL; listed as Homo sapiens) [compound 7]” stands ““++++” (≥75% = ++++)”. As for “8 (FTLGNVVGMYL; listed as Homo sapiens) [compound 8]”, the “Peptide exchange” value is on record as ““++++” (≥75% = ++++)”. “9 (GAAKDLPGV; listed as Homo sapiens) [compound 9]”: the “Peptide exchange” value is listed as ““++” (≥20% = ++)”. Turning to “10 (FLATFPLAAV; listed as Homo sapiens) [compound 10]”, the “Peptide exchange” value was ““++++” (≥75% = ++++)”. Under “11 (KIFEMLEGV; listed as Homo sapiens) [compound 11]” stands ““+++” (≥50 = +++)”. Under “12 (SLWPDPMEV; listed as Homo sapiens) [compound 12]” stands ““+++” (≥50 = +++)”.

“13 (YLMDESLNL; listed as Homo sapiens) [compound 13]”: the “Peptide exchange” value was ““+++” (≥50 = +++)”.

For the substance “14 (AAYGGLNEKSFV; listed as Homo sapiens) [compound 14]”, the “Peptide exchange” value is ““+++” (≥50 = +++)”. Regarding “15 (VLLTFKIFL; listed as Homo sapiens) [compound 15]”, the “Peptide exchange” value is listed as ““++” (≥20% = ++)”. Then “16 (VLFQGQASL; listed as Homo sapiens) [compound 16]”, with ““+++” (≥50 = +++)”; and “17 (GLLPGDRLVSV; listed as Homo sapiens) [compound 17]”, with ““+++” (≥50 = +++)”. Then “18 (YLVAKLVEV; listed as Homo sapiens) [compound 18]”, with ““++” (≥20% = ++)”; and “19 (FMVDNEAIYDI; listed as Homo sapiens) [compound 19]”, with ““++++” (≥75% = ++++)”; and “20 (RMIEYFIDV; listed as Homo sapiens) [compound 20]”, with ““+++” (≥50 = +++)”. Under “21 (VLDELDMEL; listed as Homo sapiens) [compound 21]” stands ““++” (≥20% = ++)”; under “22 (IMEENPGIFAV; listed as Homo sapiens) [compound 22]”, ““+++” (≥50 = +++)”. For “23 (VLLDDIFAQL; listed as Homo sapiens) [compound 23]”, the “Peptide exchange” value was ““+++” (≥50 = +++)”.

Regarding “24 (SLSDGLEEV; listed as Homo sapiens) [compound 24]”, the “Peptide exchange” value is on record as ““++” (≥20% = ++)”. Under “25 (FLPDEPYIKV; listed as Homo sapiens) [compound 25]” stands ““+++” (≥50 = +++)”; under “26 (ALLELAEEL; listed as Homo sapiens) [compound 26]”, ““+++” (≥50 = +++)”. Then “27 (ILADIVISA; listed as Homo sapiens) [compound 27]”, with ““+++” (≥50 = +++)”. Then “28 (QLLDETSAITL; listed as Homo sapiens) [compound 28]”, with ““+++” (≥50 = +++)”; and “29 (KMLGIPISNILMV; listed as Homo sapiens) [compound 29]”, with ““+++” (≥50 = +++)”. For the substance “30 (LILDWVPYI; listed as Homo sapiens) [compound 30]”, the “Peptide exchange” value is ““+++” (≥50 = +++)”. On to “31 (YLAPELFVNV; listed as Homo sapiens) [compound 31]”, for which the “Peptide exchange” value is listed as ““++” (≥20% = ++)”. As to “32 (KLDDLTQDLTV; listed as Homo sapiens) [compound 32]”, the “Peptide exchange” value was ““++” (≥20% = ++)”. As to “33 (VLLSLLEKV; listed as Homo sapiens) [compound 33]”, the “Peptide exchange” value is reported as ““++” (≥20% = ++)”.

In the case of “34 (ILVEADSLWVV; listed as Homo sapiens) [compound 34]”, the “Peptide exchange” value was ““+++” (≥50 = +++)”.

With “35 (KINDTIYEV; listed as Homo sapiens) [compound 35]”, the “Peptide exchange” value was ““+++” (≥50 = +++)”. Then “36 (YVLEDLEVTV; listed as Homo sapiens) [compound 36]”, with ““++” (≥20% = ++)”; and “38 (FLLEDDIHVS; listed as Homo sapiens) [compound 38]”, with ““+++” (≥50 = +++)”. Then “39 (SVAPNLPAV; listed as Homo sapiens) [compound 39]”, with ““+++” (≥50 = +++)”; and “40 (TLLVKVFSV; listed as Homo sapiens) [compound 40]”, with ““+++” (≥50 = +++)”; and “41 (SLMPHIPGL; listed as Homo sapiens) [compound 41]”, with ““+++” (≥50 = +++)”. Then “42 (VLLQKIVSA; listed as Homo sapiens) [compound 42]”, with ““+++” (≥50 = +++)”; and “43 (VLSSLEINI; listed as Homo sapiens) [compound 43]”, with ““++” (≥20% = ++)”; and “44 (ILDPISSGFLL; listed as Homo sapiens) [compound 44]”, with ““++” (≥20% = ++)”. On to “45 (SLWQDIPDV; listed as Homo sapiens) [compound 45]”, for which the “Peptide exchange” value is recorded as ““+++” (≥50 = +++)”. Under “46 (ILTEENIHL; listed as Homo sapiens) [compound 46]” stands ““+++” (≥50 = +++)”; under “47 (ILLSVPLLVV; listed as Homo sapiens) [compound 47]”, ““++” (≥20% = ++)”; under “48 (ALAELYEDEV; listed as Homo sapiens) [compound 48]”, ““+++” (≥50 = +++)”. As to “49 (YLPAVFEEV; listed as Homo sapiens) [compound 49]”, the “Peptide exchange” value is ““+++” (≥50 = +++)”.

Turning to “50 (SLSELEALM; listed as Homo sapiens) [compound 50]”, the “Peptide exchange” value was ““+++” (≥50 = +++)”. In the case of “51 (LLPDLEFYV; listed as Homo sapiens) [compound 51]”, the “Peptide exchange” value is reported as ““++++” (≥75% = ++++)”. Under “52 (FLLAHGLGFLL; listed as Homo sapiens) [compound 52]” stands ““++++” (≥75% = ++++)”; under “53 (KMIETDILQKV; listed as Homo sapiens) [compound 53]”, ““++++” (≥75% = ++++)”. Then “54 (SLLEQGKEPWMV; listed as Homo sapiens) [compound 54]”, with ““+++” (≥50 = +++)”; and “55 (SLLDLETLSL; listed as Homo sapiens) [compound 55]”, with ““++++” (≥75% = ++++)”; and “56 (KLYEGIPVLL; listed as Homo sapiens) [compound 56]”, with ““++++” (≥75% = ++++)”.

Turning to “57 (TLAELQPPVQL; listed as Homo sapiens) [compound 57]”, the “Peptide exchange” value is ““+++” (≥50 = +++)”. In the case of “59 (IMEDIILTL; listed as Homo sapiens) [compound 59]”, the “Peptide exchange” value is ““+++” (≥50 = +++)”.
